# Source: article PMC9779004, “Structural, Thermodynamic and Enzymatic Characterization of N,N-Diacetylchitobiose Deacetylase from Pyrococcus chitonophagus” (International Journal of Molecular Sciences, 2022)
# Columns and labels:
# [1] = target: N,N-diacetylchitobiose deacetylase from Pyrococcus chitonophagus (Pyrococcus chitonophagus DSM 10152); assay: SAXS; batch mode, dilution series 0.2-3.48 mg/mL in Buffer A (20 mM TRIS pH 7.4, 200 mM NaCl), room temperature; curves fitted with the crystallographic hexamer and a 'dodecameric' model (CRYSOL, OLIGOMER)
# [2] = target: N,N-diacetylchitobiose deacetylase from Pyrococcus chitonophagus (Pyrococcus chitonophagus DSM 10152); assay: SEC-SAXS; stock solution 4.7 mg/mL, Superdex 200 Increase 5/150 GL, injected at 4 °C, 0.35 mL/min; main peak fitted with the crystallographic hexamer, chi^2 = 1.2
# [3] = target: N,N-diacetylchitobiose deacetylase from Pyrococcus chitonophagus (Pyrococcus chitonophagus DSM 10152); assay: crystal structure; three crystal forms: P2(1) with (GlcNAc)2 (two hexamers in the asymmetric unit), P3(2)21 unliganded (half a hexamer, other half by the crystallographic two-fold axis), P2(1)2(1)2(1) (one hexamer); data at 100 K
# [4] = target: T1, Pch-Dac (N,N-diacetylchitobiose deacetylase) (Thermococcus chitonophagus, UniProt A0A160VQZ8); assay: ITC total heat (Happ) and 1H NMR; type: biochemical; settings: ITC pH 6.5, 75 °C; NMR HEPES pH 7.5; non-reducing-end deacetylation
# T1 construct: gene CHITON_0574; full gene in pET151D-TOPO, N-terminal 6xHis-TEV tag cut, expressed in E. coli BL21-Magic
# T1 sequence (A0A160VQZ8 1-267): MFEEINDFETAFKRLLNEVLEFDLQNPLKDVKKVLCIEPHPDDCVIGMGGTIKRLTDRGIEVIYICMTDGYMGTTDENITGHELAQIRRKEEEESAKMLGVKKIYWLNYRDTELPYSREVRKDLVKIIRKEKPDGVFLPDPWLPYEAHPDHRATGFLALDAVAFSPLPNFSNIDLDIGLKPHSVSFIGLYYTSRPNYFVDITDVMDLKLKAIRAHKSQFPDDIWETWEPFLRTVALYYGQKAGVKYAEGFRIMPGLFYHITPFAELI
percent of the scattering accounted for by the hexameric model [1] [%],stoichiometry N [1],stoichiometry N [2],stoichiometry N [3],Molecule,ITC total heat (Happ) and 1H NMR [4]
84 to 87,6,6,6,"N,N-diacetylchitobiose deacetylase from Pyrococcus chitonophagus (enzyme)",–
–,–,–,–,"CC(=O)N[C@H]1[C@H](O[C@H]2[C@H](O)[C@@H](N)C(O)O[C@@H]2CO)O[C@H](CO)[C@@H](O)[C@@H]1O (stereo partly drawn) [GlcNAc-GlcN, 1,4-β-D-acetyl glucosaminyl-D-N-glucosamine]",Reaction was observed only in the case of GlcNAc-GlcN
